Here are results for 6 molecules from patent publication US20240271119A1 (BROAD INSTITUTE, published 2024).

The target of data set [1] is YibK-SH2 (periplasmic, from SS-YibK-SH2). The data set is described as follows: cell-based or functional assay.
The target in data set [2] is YibK(V139R)-SH2 (periplasmic, from SS-YibK(V139R)-SH2). The data set is described as follows: cell-based or functional assay.
Data set [3] concerns the molecule itself. The data set is described as follows: Western blot of whole-cell lysate with and without DTT. (A western blot detects proteins with antibodies after separation by electrophoresis.)
In data set [4] the target is GCN4(7P14P)-SH2 (periplasmic, from SSPelB-GCN4(7P14P)-SH2, pMM95a) (yeast). The data set is described as follows: cell-based or functional assay.
Data set [5] deals with CadC1-155-Leu(16)TM-GCN4(7P14P) (pMM114a) (E. coli; yeast). The data set is described as follows: cell-based or functional assay.

Where a chain is given by its changes, count along the chain named. Names may count otherwise.

Turning to “YibK-SH2 (periplasmic, from SS-YibK-SH2)”, in data set [1], the PcadBA transcriptional activation (LuxAB luminescence) came to 66 fold and the overnight phage propagation was greater than 1000 fold.
As for “YibK(V139R)-SH2 (periplasmic, from SS-YibK(V139R)-SH2)”, in data set [2], the PcadBA-directed LuxAB expression was greater than 8 fold loss.

B1: YibK(V139R R146C)-SH2 (periplasmic, pMM103g) (other)
chain: MLDIVLYEPEIPQNTGNIIRLCANTGFRLHLIEPLGFTWDDKRLRRSGLDYHEFAEIKRHKTFEAFLESEKPKRLFALTTKGCPAHSQVKFKLGDYLMFGPETRGIPMSILNEMPMEQKIRIPMTANSRSMNLSNSVARTVYEAWCQLGYKGAVNLPEVKGGSGGSGGSGGSGGSSLEKHSWYHGPVSRNAAEYLLSSGINGSFLVRESESSPGQRSISLRYEGRVYHYRINTASDGKLYVSSESRFNTLAELVHHHSTVADGLITTLHYPAPKR
With B1, the binding result in data set [3] is “binds”.

B2: Ω-graft-SH2 (periplasmic, from SS-Ω-graft-SH2) (scFv)
scFv: RDIVMTQSPSSLSASVGDRVTITCRSSTGAVTTSNYASWVQEKPGKLFKGLIGGTNNRAPGVPSRFSGSLIGDKATLTISSLQPEDFATYFCALWYSNHWVFGQGTKVELKRGGGGSGGGGSGGGGSSGGGSEVKLLESGGGLVQPGGSLKLSCAVSGFSLTDYGVNWVRQAPGRGLEWIGVIWGDGITDYNSALKDRFIISKDDCENTVYLQMSKVRSDDTALYYCVTGLFDYWGQGTLVTVSSGGSGGSGGSGGSGGSSLEKHSWYHGPVSRNAAEYLLSSGINGSFLVRESESSPGQRSISLRYEGRVYHYRINTASDGKLYVSSESRFNTLAELVHHHSTVADGLITTLHYPAPKR
Take B2: in data set [4], the PcadBA-driven LuxAB expression turned out to be 30 fold and the phage enrichment in mock selection (PACE 12 hours or two PANCE passages) was greater than 1000 fold.

B3: Ω-graft(L231F F232A)-SH2 (periplasmic, from SS-Ω-graft(L231F F232A)-SH2) (scFv)
scFv: B2 scFv with L231F, F232A
B3: in data set [4], the PcadBA transcriptional activation (LuxAB) (fold decrease) came to 55.

B4: Ω-graft scFv variant 37o5c2.1 (R1C F232A) (scFv)
scFv: CDIVMTQSPSSLSASVGDRVTITCRSSTGAVTTSNYASWVQEKPGKLFKGLIGGTNNRAPGVPSRFSGSLIGDKATLTISSLQPEDFATYFCALWYSNHWVFGQGTKVELKRGGGGSGGGGSGGGGSSGGGSEVKLLESGGGLVQPGGSLKLSCAVSGFSLTDYGVNWVRQAPGRGLEWIGVIWGDGITDYNSALKDRFIISKDDCENTVYLQMSKVRSDDTALYYCVTGLADYWGQGTLVTVSS
With B4, the overnight phage enrichment in data set [5] came out at 1000 fold.
